Test system: E 17.5 Hippocampal growth cones
Assay: Hippocampal neuronal growth cone collapse assay (Sema3F)
Format: cell-based
Conditions: Anti-Nrp2^B 50 μg/ml; Nrp2 ECD 10 ug/ml
Procedure: FIG. 17. […] (A) Images of E 17.5 Hippocampal growth cones stained with rhodamine conjugated phalloidin. Control growth cones show large actin rich structures at the tip of each axon, which are reduced with Sema3F treatment. […] In contrast, Nrp2 ECD (10 ug/ml) does block this collapse. (B) Quality control for anti-Nrp2 immunohistochemistry. […] This antibody was subsequently used for IHC on fresh frozen tumor sections. (Scale bar main images=**μm and for inset images=**μm.
Then, the ability of Anti-Nrp2^B to modulate semaphorin function was tested. […] Thus, Anti-Nrp2^B acts to block specific aspects of Nrp2 function, inhibiting VEGFC but not VEGF or Sema3F mediated cellular responses.

B1: Nrp2 ECD: Nrp2 extracellular domain protein, positive control for blocking Sema3F (protein, UniProt O60462 21-864, looked up)
extracellular domain: RGQPDPPCGGRLNSKDAGYITSPGYPQDYPSHQNCEWIVYAPEPNQKIVLNFNPHFEIEKHDCKYDFIEIRDGDSESADLLGKHCGNIAPPTIISSGSMLYIKFTSDYARQGAGFSLRYEIFKTGSEDCSKNFTSPNGTIESPGFPEKYPHNLDCTFTILAKPKMEIILQFLIFDLEHDPLQVGEGDCKYDWLDIWDGIPHVGPLIGKYCGTKTPSELRSSTGILSLTFHTDMAVAKDGFSARYYLVHQEPLENFQCNVPLGMESGRIANEQISASSTYSDGRWTPQQSRLHGDDNGWTPNLDSNKEYLQVDLRFLTMLTAIATQGAISRETQNGYYVKSYKLEVSTNGEDWMVYRHGKNHKVFQANNDATEVVLNKLHAPLLTRFVRIRPQTWHSGIALRLELFGCRVTDAPCSNMLGMLSGLIADSQISASSTQEYLWSPSAARLVSSRSGWFPRIPQAQPGEEWLQVDLGTPKTVKGVIIQGARGGDSITAVEARAFVRKFKVSYSLNGKDWEYIQDPRTQQPKLFEGNMHYDTPDIRRFDPIPAQYVRVYPERWSPAGIGMRLEVLGCDWTDSKPTVETLGPTVKSEETTTPYPTEEEATECGENCSFEDDKDLQLPSGFNCNFDFLEEPCGWMYDHAKWLRTTWASSSSPNDRTFPDDRNFLRLQSDSQREGQYARLISPPVHLPRSPVCMEFQYQATGGRGVALQVVREASQESKLLWVIREDQGGEWKHGRIILPSYDMEYQIVFEGVIGKGRSGEIAIDDIRISTDVPLENCMEPISAFAGENFKVDIPEIHEREGYEDEIDDEYEVDWSNSSSATSGSGAPSTDKEKSWLYTLDP
modifications: extracellular domain
Q: With B1 as the molecule, how does the “semaphorin (Sema3F) induced growth cone collapse” value read?
A: inhibited this collapse completely

Reference: patent publication US8920805B2, “Inhibition of tumor metastasis by anti-neuropilin 2 antibodies” (Genentech, Inc., priority 2007, dated 2014)
